# Reference: patent US20140193415A1 (Hoffmann-La Roche, published 2014)
# B1: OA-F13B5-scFab-GA201 (bispecific antibody, human IgG1, kappa)
# heavy 1: not shown
# heavy 2: not shown
# light: DIQMTQSPSSLSASVGDRVTITCRASQGINNYLNWYQQKPGKAPKRLIYNTNNLQTGVPSRFSGSGSGTEFTLTISSLQPEDFATYYCLQHNSFPTFGQGTKLEIKRTVAAPSVFIFPPSDEQLKSGTASVVCLLNNFYPREAKVQWKVDNALQSGNSQESVTEQDSKDSTYSLSSTLTLSKADYEKHKVYACEVTHQGLSSPVTKSFNRGEC
# B2: OA-L31D11-scFab-GA201 (bispecific antibody, human IgG1, kappa)
# heavy 1: not shown
# heavy 2: not shown
# light: B1 light
# B3: OA-Ak18-scFab-GA201 (bispecific antibody, V domains shown)
# VH 1: QVELVESGGGVVQPGRSQRLSCAASGFTFSSYGMHWVRQAPGKGLEWVAIIWFDGSSTYYADSVRGRFTISRDNSKNTLYLQMNSLRAEDTAVYFCARELGRRYFDLWGRGTLVSVSS
# VL 1: EIVLTQSPATLSLSPGERATLSCRASQSVSSYLAWYQQKPGQAPRLLIYDASKRATGIPARFSGSGSGTDFTLTISSLEPEDFAVYYCQQRSKWPPWTFGQGTKVESK
# VH 2: QVQLVQSGAEVKKPGSSVKVSCKASGFTFTDYKIHWVRQAPGQGLEWMGYFNPNSGYSTYAQKFQGRVTITADKSTSTAYMELSSLRSEDTAVYYCARLSPGGYYVMDAWGQGTTVTVSS
# VL 2: DIQMTQSPSSLSASVGDRVTITCRASQGINNYLNWYQQKPGKAPKRLIYNTNNLQTGVPSRFSGSGSGTEFTLTISSLQPEDFATYYCLQHNSFPTFGQGTKLEIKRT
# Target: human EGFR on human tumor cells (A549, BxPC3) (human, UniProt P00533 25-1200)
# Test: cell-based or functional assay
Inhibition of EGFR phosphorylation (IC50) A549,Inhibition of EGFR phosphorylation (IC50) BxPC3,Binder
230 pM,820 pM,B1
190 pM,470 pM,B2
230 pM,1670 pM,B3
